The values below come from PMC5823917, “Sumoylation regulates FMRP-mediated dendritic spine elimination and maturation” (Nature Communications, 2018).

The series concerns the molecule itself. Nature of the series: pull-down; GST-FMRP (1-160) 1 ug with 2 ug His-FMRP (1-160), 2 h at 4 °C in dimerization buffer (50 mM Tris-HCl pH 8, 150 mM NaCl, 2.5 mM MgCl2, 0.5% NP40, 0.5 mM DTT); glutathione beads, five washes; free GST as control.

B1: FMRP (1-160 aa), N-terminal domain, GST-tagged and His-tagged copies (domain or fragment)
chain: not shown
notes: FMRP, N-terminal domain, residues 1-160; Two differently tagged copies of one fragment: GST-FMRP (1-160) held on glutathione beads and His-FMRP (1-160) in solution; each copy carries one tag, not both; also called GST-FMRP (1-160); His-FMRP (1-160 aa); source: E. coli BL21(DE3), purified (glutathione gel for GST-FMRP, Nickel resin for His-FMRP)
With B1, the binding result is “binds”.
